The text below walks through data of patent US20210388337.

Experiment in all cases: stopped-flow tryptophan fluorescence, avidin 0.5 µM, biotin-protein 5.0 µM
In series [1] the target is Avidin-pCBMA109, P02701.
Series [2] addresses Avidin-pCBMA121, P02701.
The target in series [3] is Avidin-pCBMA152, P02701.
The target of series [4] is Avidin-pCBMA170, P02701.
In series [5] the target is Avidin-pCBMA182, P02701.
In series [6] the target is Avidin-pCBMA232, P02701.
Series [7] deals with Avidin-pCBMA56, P02701.
Chain of Avidin-pCBMA56, P02701 (P02701 25-152): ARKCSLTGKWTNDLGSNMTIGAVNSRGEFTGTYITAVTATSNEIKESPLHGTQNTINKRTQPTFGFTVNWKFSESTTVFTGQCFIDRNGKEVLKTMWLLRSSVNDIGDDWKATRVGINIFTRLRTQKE
In series [8] the target is Avidin-pCBMA58, P02701.
Chain of Avidin-pCBMA58, P02701 (P02701 25-152): as above
The target of series [9] is Native avidin, P02701.
Chain of Native avidin, P02701 (P02701 25-152): as above

Chain of Avidin-pCBMA109, P02701 (P02701 25-152): as above
Chain of Avidin-pCBMA232, P02701 (P02701 25-152): as above
Chain of Avidin-pCBMA170, P02701 (P02701 25-152): as above
Chain of Avidin-pCBMA182, P02701 (P02701 25-152): as above
Chain of Avidin-pCBMA121, P02701 (P02701 25-152): as above
Chain of Avidin-pCBMA152, P02701 (P02701 25-152): as above

B1: Biotin-HRP (protein)
chain: QLTPTFYDNSCPNVSNIVRDTIVNELRSDPRIAASILRLHFHDCFVNGCDASILLDNTTSFRTEKDAFGNANSARGFPVIDRMKAAVESACPRTVSCADLLTIAAQQSVTLAGGPSWRVPLGRRDSLQAFLDLANANLPAPFFTLPQLKDSFRNVGLNRSSDLVALSGGHTFGKNQCRFIMDRLYNFSNTGLPDPTLNTTYLQTLRGLCPLNGNLSALVDFDLRTPTIFDNKYYVNLEEQKGLIQSDQELFSSPNATDTIPLVRSFANSTQTFFNAFVEAMDRMGNITPLTGTQGQIRLNCRVVNSNS
Consider B1, for which the k (kobs, observed first-order rate constant) stood at 0.026 s⁻¹ in series [1]; 0.218 s⁻¹ in [2]; 0.025 s⁻¹ in [3]; 0.209 s⁻¹ in series [4]; 0.025 s⁻¹ in series [5]; 0.196 s⁻¹ in series [6]. In addition, the k (kobs, observed first-order rate constant) was 0.261 s⁻¹ in series [7], 0.028 s⁻¹ in series [8] and 5.03 s⁻¹ in [9].
